Measured values taken from paper PMC9174452.

Columns and labels:
[1] = target: C3d^A4H-C3d^W41A heterodimer (human)
[2] = target: human C3d^17A (monomeric) (human); test: near-UV circular dichroism thermal melt; 87.5 µM C3d^17C or C3d^17A alone or with an equimolar concentration of the Sbi construct, 10 mM sodium phosphate pH 7.4, 250-320 nm, 5°C to 85°C; Tm from Boltzmann sigmoidal fits at 280 and 296 nm

Row | Substance | change in tryptophan fluorescence intensity of the C3d^A4H/C3d^W41A solution (100 µM, equimolar Sbi construct, excitation 295 nm), read as N-terminal helix swap [1] [%] | increase in melting temperature (Tm) of C3d^17A [2] [°C] | increase in tryptophan fluorescence intensity of the C3d^A4H/C3d^W41A solution (100 µM, equimolar Sbi construct, excitation 295 nm), read as N-terminal helix swap [1] [%]
1 | truncated Sbi-IV mutant Sbi-IV^V198-D208del (from UniProt Q2FVK5 198-266) (domain or fragment) | 2.5 | 6.5 | 
2 | Sbi domains III and IV (wild-type Sbi-III-IV) (from UniProt Q2FVK5 150-266) (domain or fragment) |  |  | 17
3 | Sbi domain IV (wild-type Sbi-IV) (from UniProt Q2FVK5 198-266) (domain or fragment) |  |  | 27
